# Ends that are not written are not given here.
# How the values were obtained:
# [1] = target: HAdV-64 virion (E3 deleted, replication-competent HAdV-64 virus with CMV-eGFP ORF, WT HAdV-64 capsid) (human adenovirus 64 (HAdV-64)); test: co-sedimentation
# [2] = target: HAdV-5 virion (E1/E3-deleted, replication-defective HAdV-5 vector with eGFP cassette) (human adenovirus 5 (HAdV-5)) (UniProt P04133); test: co-sedimentation
binder,measurement,setting,value
ATCYCRTGRCATRESLSGVCEISGRLYRLCCR (disulfide (positions not given here); also: oxidatively folded) [Human defensin 5],fold less HD5 bound per virion than to HAdV-5 at 20 µM HD5,[1],83 fold
same,stoichiometry N (molecules of HD5 per virion),[2],7090

# — doi:10.1101/2020.05.08.079574
